Target: SERINC3(iHA), Serine incorporator 3 with an internal HA tag (UniProt Q13530)

Substance	SERINC3 internalization from the cell surface, relative to wild type NL4.3 Nef (flow cytometry, co-transfected CEM T cells)
HIV-1 NL4.3 Nef S8R (from UniProt P03406 1-206) (natural protein)	50%
HIV-1 NL4.3 Nef I11G (from UniProt P03406 1-206) (natural protein)	0%
